First the molecules themselves.
T1: Midline T-box domain (MidTbx) (Drosophila melanogaster, UniProt Q8SYY8 171-393)
T1 sequence: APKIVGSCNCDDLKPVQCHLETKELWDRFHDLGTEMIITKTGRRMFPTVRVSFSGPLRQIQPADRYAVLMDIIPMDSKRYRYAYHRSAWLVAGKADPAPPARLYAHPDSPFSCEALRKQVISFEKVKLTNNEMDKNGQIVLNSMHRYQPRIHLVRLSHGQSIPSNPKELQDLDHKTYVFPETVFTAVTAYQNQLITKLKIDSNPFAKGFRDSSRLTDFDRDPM

B1: clone 67 (dsDNA)
DNA 1: CAGGTCAGTTCAGCGGATCCTGTCGCTACGGAGGTGATTACACGCGAAATCGAGGCGAATTCAGTGCAACTGCAGC
DNA 2: GCTGCAGTTGCACTGAATTCGCCTCGATTTCGCGTGTAATCACCTCCGTAGCGACAGGATCCGCTGAACTGACCTG
B2: clone 4 (dsDNA)
DNA 1: GCTGCAGTTGCACTGAATTCGCCTCCGTGCGTACGTGTCAATTCGTCAAGGCCGACAGGATCCGCTGAACTGACCTG
DNA 2: CAGGTCAGTTCAGCGGATCCTGTCGGCCTTGACGAATTGACACGTACGCACGGAGGCGAATTCAGTGCAACTGCAGC
B3: clone 57 (dsDNA)
DNA 1: CAGGTCAGTTCAGCGGATCCTGTCGACATGGGAGGCTGTTACGGCGCGAACGAGGCGAATTCAGTGCAACTGCAGC
DNA 2: GCTGCAGTTGCACTGAATTCGCCTCGTTCGCGCCGTAACAGCCTCCCATGTCGACAGGATCCGCTGAACTGACCTG
B4: clone 50 (dsDNA)
DNA 1: CAGGTCAGTTCAGCGGATCCTGTCGAGGTGTGGCACTGTGAAGTTCGCGAGGAGGCGAATTCAGTGCAACTGCAGC
DNA 2: GCTGCAGTTGCACTGAATTCGCCTCCTCGCGAACTTCACAGTGCCACACCTCGACAGGATCCGCTGAACTGACCTG
B5: clone 2 (dsDNA)
DNA 1: GCTGCAGTTGCACTGAATTCGCCTCACCATCACACCAGCGAAGTGACAGTTCGACAGGATCCGCTGAACTGACCTG
DNA 2: CAGGTCAGTTCAGCGGATCCTGTCGAACTGTCACTTCGCTGGTGTGATGGTGAGGCGAATTCAGTGCAACTGCAGC
B6: clone 42 (dsDNA)
DNA 1: CAGGTCAGTTCAGCGGATCCTGTCGGGTGTTGATGGTGTTAACGCGCGAGGGAGGCGAATTCAGTGCAACTGCAGC
DNA 2: GCTGCAGTTGCACTGAATTCGCCTCCCTCGCGCGTTAACACCATCAACACCCGACAGGATCCGCTGAACTGACCTG
B7: clone 43 (dsDNA)
DNA 1: CAGGTCAGTTCAGCGGATCCTGTCGGGGGGCTGGTGCGAAAGTGTGTAGTGGCAGGTCAGTTCAGCGGATCCTGTCG
DNA 2: CGACAGGATCCGCTGAACTGACCTGCCACTACACACTTTCGCACCAGCCCCCCGACAGGATCCGCTGAACTGACCTG
B8: clone 72 (dsDNA)
DNA 1: GCTGCAGTTGCACTGAATTCGCCTCAGCGCCCAGTTGGTGTTAAGCCAGTCCGACAGGATCCGCTGAACTGACCTG
DNA 2: CAGGTCAGTTCAGCGGATCCTGTCGGACTGGCTTAACACCAACTGGGCGCTGAGGCGAATTCAGTGCAACTGCAGC
B9: clone 74 (dsDNA)
DNA 1: CAGGTCAGTTCAGCGGATCCTGTCGCCTTAAGGTGCGGGCAGACAGGTGTGGAGGCGAATTCAGTGCAACTGCAGC
DNA 2: GCTGCAGTTGCACTGAATTCGCCTCCACACCTGTCTGCCCGCACCTTAAGGCGACAGGATCCGCTGAACTGACCTG
B10: clone 75 (dsDNA)
DNA 1: CAGGTCAGATCAGCGGATCCTGTCGCGACGCCTTGGGGGTGTCACGGCGCGGCAGGTCAGATCAGCGGATCCTGTCG
DNA 2: CGACAGGATCCGCTGATCTGACCTGCCGCGCCGTGACACCCCCAAGGCGTCGCGACAGGATCCGCTGATCTGACCTG
B11: mid.Najand (dsDNA)
DNA 1: CAAGGTGTCAAGGCG
DNA 2: CGCCTTGACACCTTG
B12: mid.Najand Region 2 (dsDNA)
DNA 1: CAAGGTGTCAAGGAA
DNA 2: TTCCTTGACACCTTG
B13: mid.Liu (dsDNA)
DNA 1: GGAAGTAGGTCAAG
DNA 2: CTTGACCTACTTCC
B14: Tbx20.MacIndoe (dsDNA)
DNA 1: GGAGGTGTGAGGCGA
DNA 2: TCGCCTCACACCTCC
B15: mid.Najand Region 1 (dsDNA)
DNA 1: CACCCCCCCAAGGCG
DNA 2: CGCCTTGGGGGGGTG
B16: T-site (Brachyury palindrome) (dsDNA)
DNA 1: AATTTCACACCTAGGTGTGAAATT
DNA 2: AATTTCACACCTAGGTGTGAAATT

From article PMC3485041, “In Vitro Site Selection of a Consensus Binding Site for the Drosophila melanogaster Tbx20 Homolog Midline” come the findings set out here.

One series addresses T1, Midline T-box domain (MidTbx). The series is described as follows: EMSA; 20 mM HEPES pH 7.9, 100 mM KCl, 0.2 mM EDTA, 0.2 mM EGTA, 20% glycerol, 0.1% NP40, 0.5 mM DTT, 10 mg/ml BSA, 8 ng/ul poly(dI-dC); room temperature 1 h; 15 fmol. Particulars: protein: recombinant; tags: C-terminal 6xHis (pET-21a); label: 5' biotin (primer F); blunt.
On to B1, for which the binding result is “binds”.

For the molecule B2, the binding result is reported as “binds”.

For the molecule B3, the binding result was “binds”.

As to B4, the binding result is given as “binds”.

For B5, the binding result was “binds”.

B6: the binding result is given as “binds”.

As for B7, the binding result is given as “binds”.

Take B8: the binding result is listed as “binds”.

In the case of B9, the binding result is “binds”.

For B10, the binding result is listed as “binds”.

Staying with this series, now noted: protein: recombinant; tags: C-terminal 6xHis (pET-21a); label: 5' biotin; blunt.
In the case of B11, the binding result is recorded as “binds”.

For B12, the binding result is “binds”.

Regarding B13, the binding result is on record as “no binding”.

With B14, the binding result was “binds”.

Consider B15, for which the binding result is on record as “no binding”.

Still in this series, the particulars now being: protein: recombinant; tags: C-terminal 6xHis (pET-21a); label: 5' biotin; blunt; self-complementary, 2 copies.
On to B16, for which the binding result is reported as “binds”.
